We go through 39 variants from the RNAGym collection of RNA variant scans (doi:10.7554/elife.80360).

First the molecules themselves.
B1: CPEB3 Ribozyme (parent)
chain: GGGGGCCACAGCAGAAGCGUUCACGUCGCGGCCCCUGUCAGAUUCUGGUGAAUCUGCGAAUUCUGCUGU

In this data set the parent is B1. Put plainly: self-cleavage, relative activity (ratio to wild type); higher = more cleavage; co-transcriptional.
Take GGGGGCCACAGCAGAAGCGUUCACGUCGCGGCCCCUGCCAGAUUCUGGUGAAUCUGCGAAUUCUACUGU [U38C G65A]: the self-cleavage was 0.746. As for GGGGGCCACAGCAGAAGCGUUCACGUCGCGGCCCCUGCCAGAUUCUGGUGAAUCUGCGAAUUCUCCUGU [U38C G65C], the self-cleavage is 0.519. As to GGGGGCCACAGCAGAAGCGUUCACGUCGCGGCCCCUGCCAGAUUCUGGUGAAUCUGCGAAUUCUUCUGU [U38C G65U], the self-cleavage came to 0.495. As to GGGGGCCACAGCAGAAGCGUUCACGUCGCGGCCCCUGACAGAUUCUGGUGAAUCUGCGAAUUCUGCUGA [U38A U69A], the self-cleavage was 0.98.

For the variant GGGGGCCACAGCAGAAGCGUUCACGUCGCGGCCCCUGCCGGAUUCUGGUGAAUCUGCGAAUUCUGCUGU [U38C A40G], the self-cleavage was found to be 0.842.

Take GGGGGCCACAGCAGAAGCGUUCACGUCGCGGCCCCUGCCUGAUUCUGGUGAAUCUGCGAAUUCUGCUGU [U38C A40U]: the self-cleavage was found to be 0.889. As for GGGGGCCACAGCAGAAGCGUUCACGUCGCGGCCCCUGCCCGAUUCUGGUGAAUCUGCGAAUUCUGCUGU [U38C A40C], the self-cleavage worked out at 0.77.

With GGGGGCCACAGCAGAAGCGUUCACGUCGCGGCCCCUGCCAAAUUCUGGUGAAUCUGCGAAUUCUGCUGU [U38C G41A], the self-cleavage was found to be 0.736.

Consider GGGGGCCACAGCAGAAGCGUUCACGUCGCGGCCCCUGCCACAUUCUGGUGAAUCUGCGAAUUCUGCUGU [U38C G41C], for which the self-cleavage came to 0.773.

Turning to GGGGGCCACAGCAGAAGCGUUCACGUCGCGGCCCCUGACAGAUUCUGAUGAAUCUGCGAAUUCUGCUGU [U38A G48A], the self-cleavage amounted to 0.938. As to GGGGGCCACAGCAGAAGCGUUCACGUCGCGGCCCCUGACAGAUUCUGCUGAAUCUGCGAAUUCUGCUGU [U38A G48C], the self-cleavage was 0.887. For the variant GGGGGCCACAGCAGAAGCGUUCACGUCGCGGCCCCUGACAGAUUCUGUUGAAUCUGCGAAUUCUGCUGU [U38A G48U], the self-cleavage was found to be 0.957. To GGGGGCCACAGCAGAAGCGUUCACGUCGCGGCCCCUGCCAGAUUCUGGUGAAUCUGCGAAUUUUGCUGU [U38C C63U] belongs 0.876; to GGGGGCCACAGCAGAAGCGUUCACGUCGCGGCCCCUGCCAGAUUCUGGUGAAUCUGCGACUUCUGCUGU [U38C A60C], 0.293. As to GGGGGCCACAGCAGAAGCGUUCACGUCGCGGCCCCUGCCAGAUUCUGGUGAAUCUGCGAGUUCUGCUGU [U38C A60G], the self-cleavage came out at 0.78. Take GGGGGCCACAGCAGAAGCGUUCACGUCGCGGCCCCUGACAGAUUCUGGUGAAUCUGCAAAUUCUGCUGU [U38A G58A]: the self-cleavage is 0.848. To GGGGGCCACAGCAGAAGCGUUCACGUCGCGGCCCCUGACAGAUUCUGGUGAAUCUGCUAAUUCUGCUGU [U38A G58U] belongs 0.936; to GGGGGCCACAGCAGAAGCGUUCACGUCGCGGCCCCUGACAGAUUCUGGUGAAUCUGCGAAUACUGCUGU [U38A U62A], 0.648. To GGGGGCCACAGCAGAAGCGUUCACGUCGCGGCCCCUGACAGAUUCUGGUGAAUCUGCGAAUCCUGCUGU [U38A U62C] belongs 0.594. Turning to GGGGGCCACAGCAGAAGCGUUCACGUCGCGGCCCCUGCCAGAUUCUGGUCAAUCUGCGAAUUCUGCUGU [U38C G50C], the self-cleavage was 0.942. With GGGGGCCACAGCAGAAGCGUUCACGUCGCGGCCCCUGCCAGAUUCUGGUAAAUCUGCGAAUUCUGCUGU [U38C G50A], the self-cleavage amounted to 0.948. Take GGGGGCCACAGCAGAAGCGUUCACGUCGCGGCCCCUGCGAGAUUCUGGUGAAUCUGCGAAUUCUGCUGU [U38C C39G]: the self-cleavage was 0.448. With GGGGGCCACAGCAGAAGCGUUCACGUCGCGGCCCCUGCUAGAUUCUGGUGAAUCUGCGAAUUCUGCUGU [U38C C39U], the self-cleavage stood at 0.702. The result for GGGGGCCACAGCAGAAGCGUUCACGUCGCGGCCCCUGCAAGAUUCUGGUGAAUCUGCGAAUUCUGCUGU [U38C C39A] reads 0.299; that for GGGGGCCACAGCAGAAGCGUUCACGUCGCGGCCCCUGACAGAUUCUGGUGAAUCUGCGAAUUCUCCUGU [U38A G65C], 0.578. In the case of GGGGGCCACAGCAGAAGCGUUCACGUCGCGGCCCCUGACAGAUUCUGGUGAAUCUGCGAAUUCUUCUGU [U38A G65U], the self-cleavage is 0.633.

Regarding GGGGGCCACAGCAGAAGCGUUCACGUCGCGGCCCCUGACAGAUUCUGGUGAACCUGCGAAUUCUGCUGU [U38A U53C], the self-cleavage is 0.811. To GGGGGCCACAGCAGAAGCGUUCACGUCGCGGCCCCUGCCAGAUUCUGGUGGAUCUGCGAAUUCUGCUGU [U38C A51G] belongs 0.88; to GGGGGCCACAGCAGAAGCGUUCACGUCGCGGCCCCUGCCAGAUUCUGGUGCAUCUGCGAAUUCUGCUGU [U38C A51C], 0.87; to GGGGGCCACAGCAGAAGCGUUCACGUCGCGGCCCCUGACAGAUUCUGGUGAAUCUACGAAUUCUGCUGU [U38A G56A], 0.922. On to GGGGGCCACAGCAGAAGCGUUCACGUCGCGGCCCCUGACAGAUUCUGGUGAAUCUGCGAAUUCCGCUGU [U38A U64C], for which the self-cleavage was 0.776. To GGGGGCCACAGCAGAAGCGUUCACGUCGCGGCCCCUGACAGAUUCUGGUGAAUCUGCGAAUUCUGCUCU [U38A G68C] belongs 0.927; to GGGGGCCACAGCAGAAGCGUUCACGUCGCGGCCCCUGACAGAUUCUGGUGAAUCUGCGAAUUCUGCUUU [U38A G68U], 0.939. Turning to GGGGGCCACAGCAGAAGCGUUCACGUCGCGGCCCCUGCCAGAUUCUGGUGAAUCUGCAAAUUCUGCUGU [U38C G58A], the self-cleavage was determined as 0.895. As to GGGGGCCACAGCAGAAGCGUUCACGUCGCGGCCCCUGCCAGAUUCUGGUGAAUCUGCCAAUUCUGCUGU [U38C G58C], the self-cleavage was 0.929. For the variant GGGGGCCACAGCAGAAGCGUUCACGUCGCGGCCCCUGCCAGAUUCUGGUGAAUCUGCUAAUUCUGCUGU [U38C G58U], the self-cleavage was 1.01. On to GGGGGCCACAGCAGAAGCGUUCACGUCGCGGCCCCUGCCAGAUUCUGGUGAAUCUGCGAAUUCUGCUAU [U38C G68A], for which the self-cleavage amounted to 0.992.

For the variant GGGGGCCACAGCAGAAGCGUUCACGUCGCGGCCCCUGCCAGAUUCUGGUGAAUCUGCGAAUUCUGCUUU [U38C G68U], the self-cleavage is 0.997. On to GGGGGCCACAGCAGAAGCGUUCACGUCGCGGCCCCUGCCAGAUUCUGGUGAAUCUGCGAAUUCUGCUCU [U38C G68C], for which the self-cleavage is 0.975.
